Results taken from the supplement of paper PMC10567573.
± gives the standard deviation.

Assay: protein stability index of a GFP-peptide fusion (GPS, HEK-293T) (PSI 1-6); higher = more stable
[1] = treatment: DMSO, c terminus: a fixed tail appended
[2] = treatment: MLN4924 1 uM, 8 h, c terminus: a fixed tail appended
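Note: 24-mer peptide tiles fused after GFP, lentivirally expressed, FACS-sorted into six equal bins by GFP/DsRed ratio, decoded by Illumina sequencing, PSI is the read-weighted mean bin number.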

| Sequence | protein stability index [1] | protein stability index [2] | protein stability index (treatment: DMSO, c terminus: native) | protein stability index (treatment: MLN4924 1 uM, 8 h, c terminus: native) |
| --- | --- | --- | --- | --- |
| RDVAAEAVARSPKRPAWGSRRFEA [POMT2] | 3.73 ± 0.23 | 3.94 ± 0.085 | – | – |
| RLVVQRCSGQKWMIRNWIKHARH [GALNT9] | – | – | 3.21 ± 0.92 | 2.69 ± 0.65 |
| LSGVSCFVMFLCLADYLVPILAPR [ARL6IP1] | 3.5 ± 0.071 | 3.37 ± 0.44 | – | – |
| SLGYGFVNYSDPNDADKAINTLNG [ELAVL3] | 3.76 ± 0.22 | 3.98 ± 0.18 | – | – |
| GRTPLIKLSPKKTWEGFIGGFFAT [CDS2] | 1.91 ± 0.24 | 2.09 ± 0.55 | – | – |
| PVIPAAALAGYTGSGPIQLWQFLL [ETS1] | 2.68 ± 0.26 | 2.68 ± 0.28 | – | – |
| VVHEDFREDILSCYDVYSPDKEEQ [PKD2L1] | 4.7 ± 0.33 | 4.69 ± 0.082 | – | – |
| KMLLMYCAKMEKDGYGMTPLLSAS [FEM1C] | 2.56 ± 0.67 | 2.11 ± 0.46 | – | – |
| TEEEDRIICEAHKVLGNRWAEIAK [MYBL2] | 3.85 ± 0.1 | 3.92 ± 0.46 | – | – |
| PLTGFLTTVPDGPTQLRALNLTEG [TNXB] | 3.81 ± 0.26 | 3.55 ± 0.22 | – | – |
| EIALAPYQHLEEDMKSLKQVLEMK [MTUS2] | 3.62 ± 0.17 | 3.65 ± 0.49 | – | – |
| TAEMARVLTDSNHVPLQRLSLLVH [FBXO33] | 2.83 ± 0.39 | 2.79 ± 0.096 | – | – |
| AQTLAYGDMNHEWIGNEWLPSLGL [PPFIA4] | 2.54 ± 0.43 | 2.24 ± 0.029 | – | – |
| DLLCKTSHLSDTGISALVEIPKNC [WDR41] | 2.8 ± 0.23 | 2.78 ± 0.34 | – | – |
| TTLSFYGNSISISALQSLLQHLIG [PRAME] | 2.82 ± 0.46 | 2.82 ± 0.48 | – | – |
| MEEAAVASVVLPARELQEALPEAP [BCL2L13] | 5.27 ± 0.15 | 5.51 ± 0.069 | – | – |
| CNFSIPEELEFQYRRVNELLLSIL [ZER1] | 2.34 ± 0.44 | 2.32 ± 0.42 | – | – |
| FIARLQGSILQFNPEVGIFVSIAQ [SMG5] | 2.77 ± 0.59 | 2.64 ± 0.45 | – | – |
| DHVDLSLSCTLVPRSGEQAEGSPG [CDKN1A] | 4.91 ± 0.17 | 5.08 ± 0.23 | – | – |
| PTPVGAVQQDPALSSNREAHQHRD [CSNK1G3] | 5.37 ± 0.21 | 5.41 ± 0.19 | – | – |
| KERAAGGGAGSSEDDAQSRRDEQD [GOLPH3] | 5.65 ± 0.35 | 5.67 ± 0.15 | – | – |
| YQNELHKFLIWDTAGQERFRALAP [RAB22A] | 2.29 ± 0.045 | 2.46 ± 0.37 | – | – |
| NLPKFCHECGTKYPVEWAKFCCEC [ZC2HC1A] | 5.275 ± 0.001 | 5.557 ± 0.049 | – | – |

| Sequence | protein stability index [1] | protein stability index [2] | protein stability index (treatment: DMSO, c terminus: native) | protein stability index (treatment: MLN4924 1 uM, 8 h, c terminus: native) |
| --- | --- | --- | --- | --- |
| SAAAATAELLKKQEELNRKAEELD [SCAMP3] | 5.72 ± 0.16 | 5.52 ± 0.48 | – | – |
| AMTGTFPAYGMSPSLSTITSTSSS [DVL3] | 3.68 ± 0.24 | 3.61 ± 0.17 | – | – |
| TSEQAPSSAPRDVQARMLSSTTIL [PTPRD] | 4.08 ± 0.15 | 4.03 ± 0.38 | – | – |
| FNCIRAAIAPFQSAGSPPELQGLP [NET1] | 2.67 ± 0.2 | 2.72 ± 0.2 | – | – |
| TFGNSTLALGPGESLPHRLSCLGQ [PLAGL1] | 3.19 ± 0.18 | 3.29 ± 0.18 | – | – |
| AGQLMGFFKGIDQDIERGVQSEIF [LYSMD4] | 2.71 ± 0.33 | 2.75 ± 0.34 | – | – |
| AGLLIIVLAIIAREGDCAPEEKIW [MAGEA3] | 3.25 ± 0.46 | 2.8 ± 0.34 | – | – |
| NCSGPAPAAKPDPDGGRADEWACE [P3H4] | 5.36 ± 0.17 | 5.44 ± 0.16 | – | – |
| DLTSEDQIVLLKSSAIEVIMLRSN [VDR] | 2.28 ± 0.21 | 2.05 ± 0.34 | – | – |
| LRGKFKRPPLRRVRMSADAMLKAL [TNNI2] | 2.25 ± 0.46 | 2.4 ± 0.14 | – | – |
| QQAVEQIAKAEETHSSLSQELQAR [CCDC89] | 5.2 ± 0.25 | 5.23 ± 0.28 | – | – |
| HIDPEIQDGSPTTSRRPSGTGTGP [PDLIM4] | 5.26 ± 0.26 | 5.42 ± 0.26 | – | – |
| RRALAPPSAGFRCCAAPGPHVALA [ANKRD9] | 1.98 ± 0.47 | 2.25 ± 0.31 | – | – |
| ENTAETITRVLYEVFIEWGISAKV [ZBED1] | 2.82 ± 0.088 | 2.78 ± 0.72 | – | – |
| IATLRVALPSVMRFCCCVAVIYLG [MCOLN1] | 3.29 ± 0.55 | 3.15 ± 0.21 | – | – |
| EESKEPKEEKQRRRCKPKKPTRRD [GNAS] | 5.42 ± 0.11 | 5.44 ± 0.16 | – | – |
| QWWNAVFIMLLIGIVLPVFYLVYF [LYSMD4] | 2.2 ± 0.16 | 2.14 ± 0.17 | – | – |
| LQTLRSFSHTLVSLSLFGCTNIFY [ZER1] | 2.26 ± 0.35 | 3.67 ± 1.3 | – | – |
| VTLARQAGEVVCEAIKNEMNVMLK [IMPA1] | 2.44 ± 0.4 | 2.44 ± 0.45 | – | – |
| YLCFLLAVLLQLYVATEAILIALV [SLC22A15] | 2.64 ± 0.38 | 2.51 ± 0.63 | – | – |
| LGHPALSQEEGKSALEDQGSNPSS [PPFIA4] | 5.59 ± 0.21 | 5.25 ± 0.91 | – | – |
| LIILWKNGERESGLRSLRLFQKLE [WDR41] | 2.15 ± 0.26 | 2.5 ± 0.49 | – | – |
| TASSSYGKGEGPIWLDNLHCTGNE [LOXL2] | 3.91 ± 0.16 | 3.91 ± 0.25 | – | – |

| Sequence | protein stability index [1] | protein stability index [2] | protein stability index (treatment: DMSO, c terminus: native) | protein stability index (treatment: MLN4924 1 uM, 8 h, c terminus: native) |
| --- | --- | --- | --- | --- |
| GNEKSIIDCKFNAESQGCNHEEDA [LOXL2] | 5.65 ± 0.23 | 5.57 ± 0.47 | – | – |
| QIMQGLEHPFLVNLWYSFQDEEDM [STK32A] | 2.19 ± 0.37 | 2.37 ± 0.36 | – | – |
| ETLKHIKATEPTETVQTWIELLTG [GOLPH3L] | 2.59 ± 0.2 | 2.86 ± 0.22 | – | – |
| MVPVENTEGPSLLNQKGTAVETEG [SLC2A12] | 5.62 ± 0.19 | 5.11 ± 0.3 | – | – |
| KGNLLRHIKLHSGEKPFKCHLCNY [IKZF1] | 2.37 ± 0.38 | 2.4 ± 0.23 | – | – |
| VINPMLNPIIYSFRNPDVQSAIWR [OR3A1] | 2.06 ± 0.51 | 2.24 ± 0.19 | – | – |
| ALASISHVAHVTITTKTADGKCAY [MLH1] | – | 2.63 ± 0.3 | – | – |
| TRKHAHHCHKRRTRSCSSASSRSQ [CLK3] | 4.65 ± 0.2 | 4.82 ± 0.19 | – | – |
| QPWHAVMDIESLSVFTEPNRHFYR [FBXO33] | 2.26 ± 0.18 | 2.11 ± 0.13 | – | – |
| QVLSAKERHLVEIKQKLGMNLMNE [TPD52L1] | 3.04 ± 0.12 | 3.04 ± 0.13 | – | – |
| LDKVKDGGYRPAEDKIFPVPEEPP [ZBED1] | 5.11 ± 0.18 | 5 ± 0.16 | – | – |
| GTLDCISMALTCTFNRWGTLLAVG [RBBP5] | 3.2 ± 0.3 | 3.24 ± 0.59 | – | – |
| FSSNIHTYHVGKQCFFNGVFLGNK [SPATS1] | 2.56 ± 0.39 | 2.05 ± 0.32 | – | – |
| TFLPDNFSPAKPKPSKELKPLLGS [MYORG] | 3.52 ± 0.088 | 3.69 ± 0.28 | – | – |
| RFPLMTPQELINYVQTVDFMRTDN [KLHL13] | 2.71 ± 0.26 | 2.83 ± 0.34 | – | – |
| IRESDPEQAPAPGEATAAPAPLCG [TBX6] | 5.32 ± 0.53 | 5.31 ± 0.2 | – | – |
| FFYDCSNNPISEHFHPTVIGESMY [TENT5C] | 2.16 ± 0.43 | 2.26 ± 0.16 | – | – |
| VVVCQCGLSIPSHSSELTEQKLRA [RPAIN] | 2.1 ± 0.43 | 2.36 ± 0.38 | – | – |
| WGFVHPRLLSVPELCHHVAEVWVS [RETREG3] | 3.04 ± 0.64 | 2.63 ± 0.57 | – | – |
| SKAFLLQTVDGKHQDLKYISPETM [CDC25B] | 3.22 ± 0.098 | 3.37 ± 0.29 | – | – |
| AESRELPVRCAGDWLPRGLGWGGR [ALG2] | 2.53 ± 0.053 | 2.54 ± 0.29 | – | – |
| SLPKRLCLVCGDVASGYHYGVASC [ESRRA] | 2.22 ± 0.28 | 2.43 ± 0.48 | – | – |
| QFHCHKAVLASCSQYFRSLFSSHP [KLHL14] | 2.95 ± 0.43 | 2.81 ± 0.4 | – | – |

| Sequence | protein stability index [1] | protein stability index [2] | protein stability index (treatment: DMSO, c terminus: native) | protein stability index (treatment: MLN4924 1 uM, 8 h, c terminus: native) |
| --- | --- | --- | --- | --- |
| LWVEERALLEGEKALWEDKTSLWE [CCDC70] | 2.6 ± 0.036 | 3 ± 0.11 | – | – |
| LYSLAPTMGAVVLSSTLLSFSTAI [MFSD9] | 3.19 ± 0.47 | 2.96 ± 0.42 | – | – |
| PLHLAAQRGHYRVARILIDLCSDV [RIPK4] | 2.42 ± 0.44 | 2.31 ± 0.19 | – | – |
| QSETQGLEGAQAPLAVEEDASSST [MAGEA10] | 5.64 ± 0.26 | 5.52 ± 0.33 | – | – |
| AERLGVTFFEVSPLCNFNIIESFT [RAB40A] | 2.32 ± 0.65 | 2.5 ± 0.46 | – | – |
| PSCLACNRQCLCSAESMVEYGTCM [SPRY1] | 2.84 ± 0.58 | 2.84 ± 0.48 | – | – |
| VQLSQIQGLIGSVEEQLAQLRCEM [KRT17] | 3.04 ± 0.36 | 2.79 ± 0.32 | – | – |
| EQGFQEGVPNASVIMQVPERIVVA [MFF] | 3.76 ± 0.35 | 3.83 ± 0.042 | – | – |
| DQEHNVAALKQAIKDKEAPLHVAQ [TEKT4] | 5.11 ± 0.19 | 5.18 ± 0.15 | – | – |
| MEDGSLDITQSIEDDPLLDAQLLP [TMEM192] | 5.28 ± 0.24 | 5.18 ± 0.16 | – | – |
| PPETTETPKCSSPRGQEGSRQDKP [YJU2B] | 5.5 ± 0.36 | 5.54 ± 0.26 | – | – |
| DVNEQVMQVLGPEDLQSIIYKLEE [CEP70] | 3.7 ± 0.21 | 3.7 ± 0.24 | – | – |
| QFLDIGPDVTRVGLLQYGSTVKNE [MATN2] | 3.55 ± 0.14 | 3.65 ± 0.45 | – | – |
| YDPFRDAVTLRCGHNFCRGCVSRC [TRIM35] | 2.69 ± 0.46 | 2.74 ± 0.4 | – | – |
| QLQRSWVKMDQKSKHLKEMYQELM [TRIM43] | 2.36 ± 0.4 | 2.55 ± 0.75 | – | – |
| PEFDYLKSLEIEEKINKIKWLPQQ [PPP2R2C] | 3.52 ± 0.23 | 3.58 ± 0.2 | – | – |
| HPPSHWPLIKATVGLIRNLALCPA [CTNNB1] | 2.65 ± 0.53 | 2.81 ± 0.88 | – | – |
| CPSPEALSPEPPVYSLQDFDTLAT [PRKX] | 4.61 ± 0.26 | 4.84 ± 0.053 | – | – |
| TNEKMLKAVFGKHGPISEVLLIKD [RBMY1A1] | 2.82 ± 0.24 | 2.96 ± 0.15 | – | – |
| AIPIKSWFSDPSDTALLNLLPMLD [CTDNEP1] | 2.33 ± 0.16 | 2.47 ± 0.3 | – | – |
